Data from patent US20250388669A1 (published 2025).

How the values were obtained:
B7H3 = target: T1, B7H3 (UniProt Q5ZPR3 29-466, limits assumed); experiment: FCM or ELISA, graded
T1 sequence (looked up): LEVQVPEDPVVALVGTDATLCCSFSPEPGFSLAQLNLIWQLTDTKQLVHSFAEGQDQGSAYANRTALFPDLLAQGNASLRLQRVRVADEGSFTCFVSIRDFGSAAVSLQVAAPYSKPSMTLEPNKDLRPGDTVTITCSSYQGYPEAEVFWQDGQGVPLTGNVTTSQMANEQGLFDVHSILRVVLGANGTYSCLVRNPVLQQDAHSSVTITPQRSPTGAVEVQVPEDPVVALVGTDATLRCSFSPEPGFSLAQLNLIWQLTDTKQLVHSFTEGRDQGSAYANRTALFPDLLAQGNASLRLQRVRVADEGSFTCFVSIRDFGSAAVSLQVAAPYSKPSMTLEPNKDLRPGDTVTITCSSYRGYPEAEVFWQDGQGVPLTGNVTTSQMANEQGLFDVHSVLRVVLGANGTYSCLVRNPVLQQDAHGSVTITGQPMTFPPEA

CD40 = CD40 (UniProt P25942 21-193, limits assumed); experiment: FCM or ELISA, graded
Sequence of CD40 (P25942 21-193 limits assumed): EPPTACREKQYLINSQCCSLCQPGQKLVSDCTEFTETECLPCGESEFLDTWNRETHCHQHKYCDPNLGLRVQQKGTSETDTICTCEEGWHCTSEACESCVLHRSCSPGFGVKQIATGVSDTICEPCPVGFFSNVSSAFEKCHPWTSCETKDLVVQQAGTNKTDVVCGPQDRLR

- binding result (B7H3): binds
- binding result (CD40): binds
B1: Ly2428 (bispecific antibody)
heavy 1: QVQLVQSGAEVKKPGASVKVSCKASGYTFTSYVMHWVRQKPGQGLEWIGYINPYNEGTESTDKFKGRATMTSDKSTSTVYMELSSLRSEDTAVYYCASIYYGYEGTYFGVWGQGTLVTVSSASTKGPSVFPLAPSSKSTSGGTAALGCLVKDYFPEPVTVSWNSGALTSGVHTFPAVLQSSGLYSLSSVVTVPSSSLGTQTYICNVNHKPSNTKVDKKVEPKSCGGGGSGGGGSGGGGSGGGGSEVQLVESGGGLVQPGGSLRLSCAASGFTFTNYGLHWVRQAPGKGLEWVSSISPSGGVTYYRDSVKGRFTISRDNSKNTLYLQMNSLRAEDTAVYYCAKPFLGWGGANWIAHWGQGTLVTVSSGGGGSDKTHTCPPCPAPEAAGPSVFLFPPKPKDTLMISRTPEVTCVVVDVSHEDPEVKFNWYVDGVEVHNAKTKPREEQYNSTYRVVSVLTVLHQDWLNGKEYKCKVSNKALPAPIEKTISKAKGQPREPQVYTLPPSREEMTKNQVSLWCLVKGFYPSDIAVEWESNGQPENNYKTTPPVLDSDGSFFLYSKLTVDKSRWQQGNVFSCSVMHEALHNHYTQKSLSLSPG
heavy 2: QVQLVQSGAEVKKPGASVKVSCKASGYTFTSYVMHWVRQKPGQGLEWIGYINPYNEGTESTDKFKGRATMTSDKSTSTVYMELSSLRSEDTAVYYCASIYYGYEGTYFGVWGQGTLVTVSSASTKGPSVFPLAPSSKSTSGGTAALGCLVKDYFPEPVTVSWNSGALTSGVHTFPAVLQSSGLYSLSSVVTVPSSSLGTQTYICNVNHKPSNTKVDKKVEPKSCGGGGSGGGGSGGGGSGGGGSDIQMTQSPSSLSASVGDRVTITCLASEDISNDLAWYQQKPGKAPKLLIYFVDRLLDGVPSRFSGSGSGTDFTLTISSLQPEDFATYYCQQSYKYPPTFGQGTKLEIKGGGGSDKTHTCPPCPAPEAAGPSVFLFPPKPKDTLMISRTPEVTCVVVDVSHEDPEVKFNWYVDGVEVHNAKTKPREEQYNSTYRVVSVLTVLHQDWLNGKEYKCKVSNKALPAPIEKTISKAKGQPREPQVYTLPPSREEMTKNQVSLSCAVKGFYPSDIAVEWESNGQPENNYKTTPPVLDSDGSFFLVSKLTVDKSRWQQGNVFSCSVMHEALHNRFTQKSLSLSPG
light: EIVLTQSPATLSLSPGERATLSCRASSSVSYMHWYQQKPGQAPRPWIYATSNLASGIPARFSGSRSGTDYTLTISSLEPEDFAVYYCQQWSSNTLTFGGGTKVEIKRTVAAPSVFIFPPSDEQLKSGTASVVCLLNNFYPREAKVQWKVDNALQSGNSQESVTEQDSKDSTYSLSSTLTLSKADYEKHKVYACEVTHQGLSSPVTKSFNRGEC
notes: B7H3 Fabs x central CD40 Fv (TM559)
